Reference: patent US20250264476A1, “AMINO ACID-SPECIFIC BINDER AND SELECTIVELY IDENTIFYING AN AMINO ACID” (Government of the United States of America, as represented …, priority 2021, published 2025)

Tested on: biotinylated peptides that vary only by their N-terminal amino acid
Assay: Bio-layer interferometry (BLI) binding of ClpS to biotinylated peptides on streptavidin probe
Conditions: ClpS at 0.312-40 μM in 20 mM HEPES pH 8, 150 mM KCl, 0.1% BSA, 0.05% Tween-20
Experimental: The initial binding activity of T. elongatus ClpS2 was characterized using bio-laver interferometry (BLI) In BLI, a functionalized fiber-optic probe is placed in a solution of analyte and the accumulation of analyte on the functional group of the probe is measured by changes in reflected light within the probe. A BLI probe functionalized with streptavidin is allowed to accumulate biotinylated peptide. Probes with peptide are then placed in solutions of ClpS of varying concentration and allowed to equilibrate. BLI response is then graphed to concentration to establish a binding curve. Dilutions of T. elongatus ClpS2 were made in 20 mM HEPES pH 8, 150 mM KCl, 0.1% BSA, and 0.05% Tween-20 at concentrations of 0.312, 0.625, 1.25, 2.5, 5, 10, 20, and 40 μM.
With regard to peptides, all peptides are named by indicating the first two residues, with the full sequence available in Table 3. All of the peptides had the same sequence for the C-terminal end of the peptide, XXAVECK (Sequence ID No. 18), where the N-terminal amino acids are varied. The peptides also contained a biotin linked via the lysine side chain on the C-terminal residue. X1G2 peptides started from a lyophilized form. Peptides were resuspended in 1×DPBS and diluted to the appropriate concentration into the experiment buffer. […]

Sequence of biotinylated peptides that vary only by their N-terminal amino acid (as listed by the source): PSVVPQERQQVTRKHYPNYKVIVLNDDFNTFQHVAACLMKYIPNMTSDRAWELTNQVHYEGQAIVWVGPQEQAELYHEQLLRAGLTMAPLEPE

B1: T. elongatus ClpS2: wild-type ClpS protein, N-End Rule Pathway adaptor protein, parent of the engineered variants (protein, listed as Thermosynechococcus elongatus)
chain: ASVVPQEGQQVTRKHYPNYKVIVLNDDFNTFRHVAACLMKYIPNMTSDRAWELTNQVHYEGQAIVWVGPQEQAELYHEQLLRAGLTMAPLEPEGS
In the case of B1, the “binding preference across four peptides that vary only by their N-terminal amino acid” value is reported as “strong preference for binding leucine”.
